# Laboratory results from the supplement of paper PMC9112550, “Optimization of the antimicrobial peptide Bac7 by deep mutational scanning” (BMC Biology, 2022).
# Tested on: Escherichia coli TOP10
# Assay: shrunken log2 fold change of peptide-encoding DNA abundance (4.5 h post-induction vs induction); higher = less antimicrobial activity (less host growth inhibition)
# Conditions: time post-induction: 4.5 h; library: site-saturation at positions 5, 18, 19, 20
# 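Further: peptides expressed intracellularly from a pBAD plasmid library in pooled LB shake-flask culture, induced with 0.3% L-arabinose, DNA abundance read by NGS, three biological replicates, DESeq2 with apeglm shrinkage.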
row,Sequence,shrunken log2 fold change
1,RRIRERPPRLPRPRPRPVMSPRP,0.0484
2,RRIRARPPRLPRPRPRPELYPRP,0.428
3,RRIRQRPPRLPRPRPRPLRYPRP,-0.0738
4,RRIRERPPRLPRPRPRPAREPRP,0.0588
5,RRIRIRPPRLPRPRPRPRVFPRP,0.0961
6,RRIRSRPPRLPRPRPRPRPQPRP,0.72
7,RRIRERPPRLPRPRPRPTCEPRP,-0.122
8,RRIRFRPPRLPRPRPRPHPIPRP,-0.0674
9,RRIRVRPPRLPRPRPRPPINPRP,0.0484
10,RRIRCRPPRLPRPRPRPHDDPRP,-0.104
11,RRIRPRPPRLPRPRPRPASEPRP,0.0613
12,RRIRCRPPRLPRPRPRPPAYPRP,0.176
13,RRIRCRPPRLPRPRPRPFHIPRP,-1.96
14,RRIRSRPPRLPRPRPRPTTTPRP,0.0739
15,RRIRWRPPRLPRPRPRPGHCPRP,-0.101
16,RRIRPRPPRLPRPRPRPNISPRP,-0.208
17,RRIRQRPPRLPRPRPRPIDMPRP,0.00643
18,RRIRFRPPRLPRPRPRPDDEPRP,0.066
19,RRIRLRPPRLPRPRPRPIPGPRP,0.00419
20,RRIRNRPPRLPRPRPRPMHAPRP,0.0438
21,RRIRLRPPRLPRPRPRPGEYPRP,-0.0271
22,RRIRYRPPRLPRPRPRPTGRPRP,0.0692
23,RRIRCRPPRLPRPRPRPCKPPRP,-0.216
24,RRIRNRPPRLPRPRPRPRLQPRP,0.0236
25,RRIRHRPPRLPRPRPRPQLQPRP,0.0457

row,Sequence,shrunken log2 fold change
1,RRIRMRPPRLPRPRPRPVHLPRP,-0.0129
2,RRIRGRPPRLPRPRPRPRNDPRP,0.113
3,RRIRERPPRLPRPRPRPWFCPRP,-0.375
4,RRIRHRPPRLPRPRPRPNPMPRP,-0.00731
5,RRIRARPPRLPRPRPRPYIDPRP,-0.186
6,RRIRMRPPRLPRPRPRPWFVPRP,-0.283
7,RRIRARPPRLPRPRPRPWNPPRP,0.126
8,RRIRGRPPRLPRPRPRPCNFPRP,0.138
9,RRIRMRPPRLPRPRPRPWCFPRP,-0.144
10,RRIRNRPPRLPRPRPRPPHRPRP,0.00305
11,RRIRGRPPRLPRPRPRPVEQPRP,0.0754
12,RRIRFRPPRLPRPRPRPPWAPRP,0.267
13,RRIRLRPPRLPRPRPRPSDRPRP,-0.147
14,RRIRTRPPRLPRPRPRPFMVPRP,-0.291
15,RRIRERPPRLPRPRPRPGQLPRP,-0.131
16,RRIRSRPPRLPRPRPRPFNVPRP,-0.343
17,RRIRTRPPRLPRPRPRPMQCPRP,-0.00968
18,RRIRYRPPRLPRPRPRPYKVPRP,-0.0075
19,RRIRERPPRLPRPRPRPKMNPRP,-0.642
20,RRIRVRPPRLPRPRPRPGNVPRP,-0.393
21,RRIRNRPPRLPRPRPRPHGVPRP,0.0154
22,RRIRKRPPRLPRPRPRPDFVPRP,0.0472
23,RRIRFRPPRLPRPRPRPAARPRP,0.192
24,RRIRRRPPRLPRPRPRPEGMPRP,1.27
25,RRIRMRPPRLPRPRPRPFWGPRP,-0.149

row,Sequence,shrunken log2 fold change
1,RRIRARPPRLPRPRPRPPTSPRP,0.525
2,RRIRFRPPRLPRPRPRPMWLPRP,0.0605
3,RRIRWRPPRLPRPRPRPLEDPRP,0.047
4,RRIRRRPPRLPRPRPRPYALPRP,-0.5
5,RRIRWRPPRLPRPRPRPLCMPRP,-0.177
6,RRIRSRPPRLPRPRPRPPPWPRP,0.651
7,RRIRIRPPRLPRPRPRPYGCPRP,0.0504
8,RRIRTRPPRLPRPRPRPGKPPRP,0.0978
9,RRIRERPPRLPRPRPRPCAIPRP,-0.15
10,RRIRVRPPRLPRPRPRPSAMPRP,0.0604
11,RRIRARPPRLPRPRPRPRPRPRP,1.99
12,RRIRMRPPRLPRPRPRPVFSPRP,0.314
13,RRIRTRPPRLPRPRPRPTYCPRP,-0.379
14,RRIRPRPPRLPRPRPRPWPYPRP,0.0948
15,RRIRVRPPRLPRPRPRPSEIPRP,-0.623
16,RRIRIRPPRLPRPRPRPLFLPRP,-0.653
17,RRIRARPPRLPRPRPRPFLLPRP,-0.223
18,RRIRERPPRLPRPRPRPCNMPRP,-0.101
19,RRIRQRPPRLPRPRPRPCRRPRP,0.00897
20,RRIRHRPPRLPRPRPRPFHQPRP,-0.01
21,RRIRPRPPRLPRPRPRPYYPPRP,-0.439
22,RRIRHRPPRLPRPRPRPRHQPRP,0.0252
23,RRIRIRPPRLPRPRPRPQFSPRP,-0.371
24,RRIRTRPPRLPRPRPRPAHSPRP,0.0608
25,RRIRERPPRLPRPRPRPQIGPRP,-0.0217

row,Sequence,shrunken log2 fold change
1,RRIRIRPPRLPRPRPRPFIFPRP,-0.696
2,RRIRNRPPRLPRPRPRPGQKPRP,-0.000842
3,RRIRIRPPRLPRPRPRPNAHPRP,-0.0997
4,RRIRWRPPRLPRPRPRPKGLPRP,-0.0645
5,RRIRNRPPRLPRPRPRPGWAPRP,0.135
6,RRIRLRPPRLPRPRPRPFMIPRP,-0.186
7,RRIRKRPPRLPRPRPRPFVPPRP,-0.297
8,RRIRLRPPRLPRPRPRPCDMPRP,-0.0352
9,RRIRTRPPRLPRPRPRPVTNPRP,-0.0277
10,RRIRPRPPRLPRPRPRPMKDPRP,-0.313
11,RRIRCRPPRLPRPRPRPKYFPRP,-0.501
12,RRIRKRPPRLPRPRPRPWDDPRP,0.0248
13,RRIRLRPPRLPRPRPRPTFRPRP,0.0593
14,RRIRERPPRLPRPRPRPFVKPRP,-0.0102
15,RRIRHRPPRLPRPRPRPANVPRP,-0.192
16,RRIRYRPPRLPRPRPRPQQCPRP,-0.145
17,RRIRARPPRLPRPRPRPNKWPRP,-0.0519
18,RRIRRRPPRLPRPRPRPMVHPRP,0.113
19,RRIRSRPPRLPRPRPRPHFVPRP,-0.0872
20,RRIRQRPPRLPRPRPRPFWGPRP,-0.0312
21,RRIRMRPPRLPRPRPRPWFRPRP,-0.305
22,RRIRWRPPRLPRPRPRPHAKPRP,0.202
23,RRIRIRPPRLPRPRPRPIHNPRP,-0.936
24,RRIRLRPPRLPRPRPRPLQDPRP,0.0629
25,RRIRNRPPRLPRPRPRPTSRPRP,-0.129

row,Sequence,shrunken log2 fold change
1,RRIRFRPPRLPRPRPRPMRNPRP,0.92
2,RRIRLRPPRLPRPRPRPQFGPRP,-0.291
3,RRIRRRPPRLPRPRPRPTCDPRP,0.502
4,RRIRCRPPRLPRPRPRPPTWPRP,0.0486
5,RRIRKRPPRLPRPRPRPMALPRP,-0.00663
6,RRIRSRPPRLPRPRPRPLAWPRP,0.402
7,RRIRQRPPRLPRPRPRPYNGPRP,-0.631
8,RRIRKRPPRLPRPRPRPTWLPRP,0.638
9,RRIRKRPPRLPRPRPRPVTIPRP,0.0361
10,RRIRPRPPRLPRPRPRPRQEPRP,3.83
11,RRIRSRPPRLPRPRPRPPDRPRP,0.643
12,RRIRYRPPRLPRPRPRPKGQPRP,0.0405
13,RRIRTRPPRLPRPRPRPEPQPRP,0.927
14,RRIRIRPPRLPRPRPRPSCWPRP,-0.322
15,RRIRFRPPRLPRPRPRPNTNPRP,-0.622
16,RRIRQRPPRLPRPRPRPNHPPRP,-0.249
17,RRIRDRPPRLPRPRPRPTFVPRP,0.177
18,RRIRSRPPRLPRPRPRPYAFPRP,-0.487
19,RRIRLRPPRLPRPRPRPTWRPRP,0.337
20,RRIRKRPPRLPRPRPRPAMHPRP,0.402
21,RRIRRRPPRLPRPRPRPMHLPRP,0.156
22,RRIRFRPPRLPRPRPRPRGCPRP,0.433
23,RRIRVRPPRLPRPRPRPGVCPRP,0.186
24,RRIRWRPPRLPRPRPRPRQFPRP,0.0819
25,RRIRPRPPRLPRPRPRPHDDPRP,-0.421

row,Sequence,shrunken log2 fold change
1,RRIRGRPPRLPRPRPRPCMIPRP,0.235
2,RRIRMRPPRLPRPRPRPTRRPRP,1.14
3,RRIRTRPPRLPRPRPRPDLGPRP,-0.117
4,RRIRARPPRLPRPRPRPSAFPRP,0.54
5,RRIRYRPPRLPRPRPRPMCFPRP,-0.335
6,RRIRQRPPRLPRPRPRPLHGPRP,0.0407
7,RRIRQRPPRLPRPRPRPNQRPRP,0.0738
8,RRIRFRPPRLPRPRPRPFLTPRP,-0.172
9,RRIRNRPPRLPRPRPRPQLCPRP,-0.00259
10,RRIRKRPPRLPRPRPRPNRVPRP,-0.00538
11,RRIRFRPPRLPRPRPRPTDIPRP,0.0284
12,RRIRGRPPRLPRPRPRPLCCPRP,0.829
13,RRIRNRPPRLPRPRPRPAPYPRP,0.0296
14,RRIRCRPPRLPRPRPRPGKSPRP,0.0822
15,RRIRWRPPRLPRPRPRPQFMPRP,-0.155
16,RRIRSRPPRLPRPRPRPVDGPRP,0.826
17,RRIRPRPPRLPRPRPRPRGMPRP,0.137
18,RRIRHRPPRLPRPRPRPVLEPRP,0.338
19,RRIRSRPPRLPRPRPRPMVAPRP,0.0774
20,RRIRFRPPRLPRPRPRPKFHPRP,-0.42
21,RRIRKRPPRLPRPRPRPMHGPRP,0.272
22,RRIRNRPPRLPRPRPRPCIQPRP,0.00396
23,RRIRTRPPRLPRPRPRPKFSPRP,-0.189
24,RRIRARPPRLPRPRPRPDWTPRP,0.0425
25,RRIRLRPPRLPRPRPRPQCWPRP,-0.0159
